According to the supplement of paper PMC5998384:

Legend:
HeLa Kyoto [1] = assay: solubility in G1/S (NP-40 vs SDS abundance) (log2 ratio); higher = more soluble; conditions: cell cycle stage: G1/S
HeLa Kyoto [2] = assay: melting temperature (median over replicates), in situ; higher = more thermally stable
HeLa Kyoto [3] = assay: solubility change mitosis vs G1/S (difference of NP-40 vs SDS log2 ratios) (log2 ratio difference); higher = more soluble in mitosis
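For melting temperature (median over replicates), in situ in this document: HeLa Kyoto cells synchronized by double thymidine or nocodazole block, proteins quantified by TMT10plex mass spectrometry, three independent biological replicates.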
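For solubility change mitosis vs G1/S (difference of NP-40 vs SDS log2 ratios) in this document: synchronized HeLa Kyoto cells (double thymidine block for G1/S, nocodazole release for mitosis), protein amounts in NP-40 versus SDS lysates quantified by mass spectrometry, three biological replicates.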
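For solubility in G1/S (NP-40 vs SDS abundance) in this document: HeLa Kyoto cells arrested at G1/S by double thymidine block, proteins quantified by TMT10plex mass spectrometry in mild NP-40 versus SDS extracts, three biological replicates.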

Row | Sequence | solubility in G1/S (log2) (HeLa Kyoto [1]) | melting temperature (HeLa Kyoto [2]; cell cycle stage: G1/S) | melting temperature (HeLa Kyoto [2]; cell cycle stage: mitosis) | solubility change mitosis (log2) (HeLa Kyoto [3])
1 | MGDEDDDESCAVELRITEANLTGHEEKVSVENFELLKVLGTGAYGKVFLVRKAGGHDAGKLYAMKVLRKAALVQRAKTQEHTRTERSVLELVRQAPFLVTLHYAFQTDAKLHLILDYVSGGEMFTHLYQRQYFKEAEVRVYGGEIVLALEHLHKLGIIYRDLKLENVLLDSEGHIVLTDFGLSKEFLTEEKERTFSFCGTIEYMAPEIIRSKTGHGKAVDWWSLGILLFELLTGASPFTLEGERNTQAEVSRRILKCSPPFPPRIGPVAQDLLQRLLCKDPKKRLGAGPQGAQEVRNHPFFQGLDWVALAARKIPAPFRPQIRSELDVGNFAEEFTRLEPVYSPPGSPPPGDPRIFQGYSFVAPSILFDHNNAVMTDGLEAPGAGDRPGRAAVARSAMMQDSPFFQQYELDLREPALGQGSFSVCRRCRQRQSGQEFAVKILSRRLEANTQREVAALRLCQSHPNVVNLHEVHHDQLHTYLVLELLRGGELLEHIRKKRHFSESEASQILRSLVSAVSFMHEEAGVVHRDLKPENILYADDTPGAPVKIIDFGFARLRPQSPGVPMQTPCFTLQYAAPELLAQQGYDESCDLWSLGVILYMMLSGQVPFQGASGQGGQSQAAEIMCKIREGRFSLDGEAWQGVSEEAKELVRGLLTVDPAKRLKLEGLRGSSWLQDGSARSSPPLRTPDVLESSGPAVRSGLNATFMAFNRGKREGFFLKSVENAPLAKRRKQKLRSATASRRGSPAPANPGRAPVASKGAPRRANGPLPPS [RPS6KA4] | -0.0622 | 46.6 °C | 49.5 °C | -0.0849
2 | MGEAGAGAGASGGPEASPEAEVVKLLPFLAPGARADLQAAAVRHVLALTGCGPGRALLAGQAALLQALMELAPASAPARDAARALVNLAADPGLHETLLAADPGLPARLMGRALDPQWPWAEEAAAALANLSREPAPCAALMAALAAAEPADSGLERLVRALCTPGYNARAPLHYLAPLLSNLSQRPAARAFLLDPDRCVVQRLLPLTQYPDSSVRRGGVVGTLRNCCFEHRHHEWLLGPEVDILPFLLLPLAGPEDFSEEEMERLPVDLQYLPPDKQREPDADIRKMLVEAIMLLTATAPGRQQVRDQGAYLILRELHSWEPEPDVRTACEKLIQVLIGDEPERGMENLLEVQVPEDVEQQLQQLDCREQEQLERELAPEPWVERATPT [HGH1] | 0.131 | 48.7 °C | 50.5 °C | 0.156
3 | MGKKHKKHKSDKHLYEEYVEKPLKLVLKVGGNEVTELSTGSSGHDSSLFEDKNDHDKHKDRKRKKRKKGEKQIPGEEKGRKRRRVKEDKKKRDRDRVENEAEKDLQCHAPVRLDLPPEKPLTSSLAKQEEVEQTPLQEALNQLMRQLQRKDPSAFFSFPVTDFIAPGYSMIIKHPMDFSTMKEKIKNNDYQSIEELKDNFKLMCTNAMIYNKPETIYYKAAKKLLHSGMKILSQERIQSLKQSIDFMADLQKTRKQKDGTDTSQSGEDGGCWQREREDSGDAEAHAFKSPSKENKKKDKDMLEDKFKSNNLEREQEQLDRIVKESGGKLTRRLVNSQCEFERRKPDGTTTLGLLHPVDPIVGEPGYCPVRLGMTTGRLQSGVNTLQGFKEDKRNKVTPVLYLNYGPYSSYAPHYDSTFANISKDDSDLIYSTYGEDSDLPSDFSIHEFLATCQDYPYVMADSLLDVLTKGGHSRTLQEMEMSLPEDEGHTRTLDTAKEMEITEVEPPGRLDSSTQDRLIALKAVTNFGVPVEVFDSEEAEIFQKKLDETTRLLRELQEAQNERLSTRPPPNMICLLGPSYREMHLAEQVTNNLKELAQQVTPGDIVSTYGVRKAMGISIPSPVMENNFVDLTEDTEEPKKTDVAECGPGGS [BRD7] | -0.49 | 46.7 °C | 49.1 °C | 0.315
4 | MGPVRLGILLFLFLAVHEAWAGMLKEEDDDTERLPSKCEVCKLLSTELQAELSRTGRSREVLELGQVLDTGKRKRHVPYSVSETRLEEALENLCERILDYSVHAERKGSLRYAKGQSQTMATLKGLVQKGVKVDLGIPLELWDEPSVEVTYLKKQCETMLEEFEDIVGDWYFHHQEQPLQNFLCEGHVLPAAETACLQETWTGKEITDGEEKTEGEEEQEEEEEEEEEEGGDKMTKTGSHPKLDREDL [CNPY4] | 0.0586 |  | 54.3 °C | 0.223
5 | MGWSQDLFRALWRSLSREVKEHVGTDQFGNKYYYIPQYKNWRGQTIREKRIVEAANKKEVDYEAGDIPTEWEAWIRRTRKTPPTMEEILKNEKHREEIKIKSQDFYEKEKLLSKETSEELLPPPVQTQIKGHASAPYFGKEEPSVAPSSTGKTFQPGSWMPRDGKSHNQ [NDUFAF2] | 0.329 | 55.5 °C | 52.2 °C | 0.329
6 | MIEDTMTLLSLLGRIMRYFLLRPETLFLLCISLALWSYFFHTDEVKTIVKSSRDAVKMVKGKVAEIMQNDRLGGLDVLEAEFSKTWEFKNHNVAVYSIQGRRDHMEDRFEVLTDLANKTHPSIFGIFDGHGGETAAEYVKSRLPEALKQHLQDYEKDKENSVLSYQTILEQQILSIDREMLEKLTVSYDEAGTTCLIALLSDKDLTVANVGDSRGVLCDKDGNAIPLSHDHKPYQLKERKRIKRAGGFISFNGSWRVQGILAMSRSLGDYPLKNLNVVIPDPDILTFDLDKLQPEFMILASDGLWDAFSNEEAVRFIKERLDEPHFGAKSIVLQSFYRGCPDNITVMVVKFRNSSKTEEQ [PPM1L] | -0.0862 |  | 53.9 °C | -0.142
7 | MISQFFILSSKGDPLIYKDFRGDSGGRDVAELFYRKLTGLPGDESPVVMHHHGRHFIHIRHSGLYLVVTTSENVSPFSLLELLSRLATLLGDYCGSLGEGTISRNVALVYELLDEVLDYGYVQTTSTEMLRNFIQTEAVVSKPFSLFDLSSVGLFGAETQQSKVAPSSAASRPVLSSRSDQSQKNEVFLDVVERLSVLIASNGSLLKVDVQGEIRLKSFLPSGSEMRIGLTEEFCVGKSELRGYGPGIRVDEVSFHSSVNLDEFESHRILRLQPPQGELTVMRYQLSDDLPSPLPFRLFPSVQWDRGSGRLQVYLKLRCDLLSKSQALNVRLHLPLPRGVVSLSQELSSPEQKAELAEGALRWDLPRVQGGSQLSGLFQMDVPGPPGPPSHGLSTSASPLGLGPASLSFELPRHTCSGLQVRFLRLAFRPCGNANPHKWVRHLSHSDAYVIRI [AP4M1] | -0.0981 | 49.2 °C |  | -0.0241
8 | MKAVKSERERGSRRRHRDGDVVLPAGVVVKQERLSPEVAPPAHRRPDHSGGSPSPPTSEPARSGHRGNRARGVSRSPPKKKNKASGRRSKSPRSKRNRSPHHSTVKVKQEREDHPRRGREDRQHREPSEQEHRRARNSDRDRHRGHSHQRRTSNERPGSGQGQGRDRDTQNLQAQEEEREFYNARRREHRQRNDVGGGGSESQELVPRPGGNNKEKEVPAKEKPSFELSGALLEDTNTFRGVVIKYSEPPEARIPKKRWRLYPFKNDEVLPVMYIHRQSAYLLGRHRRIADIPIDHPSCSKQHAVFQYRLVEYTRADGTVGRRVKPYIIDLGSGNGTFLNNKRIEPQRYYELKEKDVLKFGFSSREYVLLHESSDTSEIDRKDDEDEEEEEEVSDS [SNIP1] | -0.985 |  | 49.8 °C | 0.493
9 | MLPGLRRLLQAPASACLLLMLLALPLAAPSCPMLCTCYSSPPTVSCQANNFSSVPLSLPPSTQRLFLQNNLIRTLRPGTFGSNLLTLWLFSNNLSTIYPGTFRHLQALEELDLGDNRHLRSLEPDTFQGLERLQSLHLYRCQLSSLPGNIFRGLVSLQYLYLQENSLLHLQDDLFADLANLSHLFLHGNRLRLLTEHVFRGLGSLDRLLLHGNRLQGVHRAAFRGLSRLTILYLFNNSLASLPGEALADLPSLEFLRLNANPWACDCRARPLWAWFQRARVSSSDVTCATPPERQGRDLRALREADFQACPPAAPTRPGSRARGNSSSNHLYGVAEAGAPPADPSTLYRDLPAEDSRGRQGGDAPTEDDYWGGYGGEDQRGEQMCPGAACQAPPDSRGPALSAGLPSPLLCLLLLVPHHL [RTN4RL2] | 0.0566 | 54 °C | 53.7 °C | -0.00838
